According to US20070212355A1 (priority 2005, published 2007):
Like-named read-outs stand apart in the source and are kept apart here. Ends that are not written are not given here.

Experiments:
[1] = SEC-SLS self-association of peptides in PBS (pH 7.5); type: physicochemical; details: 1 mg/ml
Procedure: The self-association poses a challenge to the development and manufacturing of a homogeneous therapeutic.
Solution molecular weight of the peptides was measured by SEC-SLS. Briefly, peptide solutions in PBS (pH 7.5) at 0.4 to 2.0 mg/mL were fractionated over a Superdex peptide column (Amersham Pharmacia). The eluted peaks were monitored by static light scattering at 690 nm and solution molecular weight was determined at UV 280 nm using the Astra software package (Wyatt Inc.).

[2] = CD spectra secondary structure of peptides; type: physicochemical; details: 0.2 mg/mL in PBS, 25° C.
Procedure: The secondary structures of tested peptides were determined using 0.2 mg/mL peptide solutions in PBS. Briefly, CD spectra were collected in triplicate at 1 nm intervals at 25° C. in 0.1 cm path length cell. Secondary structures were determined by fitting of the CD spectra using CD spectra software (CD Spectra Deconvolution software 2.1). All tested peptides contained peaks corresponding to the presence of alpha helices.

mutated human GLP-2R [3] = target: T1, mutated human GLP-2R (Homo sapiens, UniProt O95838, E512D/G511A/L513V); test: cAMP expression assay in HEK 293E clonal cell line expressing mutated human GLP-2R; type: cell-based; details: for activity relative to wild type GLP-2 (times less): from Table 5 EC50 values
T1 construct: expressed in transfected cells; host or cells: HEK 293E clonal cell line
T1 sequence (O95838 1-553 G511A/E512D/L513V): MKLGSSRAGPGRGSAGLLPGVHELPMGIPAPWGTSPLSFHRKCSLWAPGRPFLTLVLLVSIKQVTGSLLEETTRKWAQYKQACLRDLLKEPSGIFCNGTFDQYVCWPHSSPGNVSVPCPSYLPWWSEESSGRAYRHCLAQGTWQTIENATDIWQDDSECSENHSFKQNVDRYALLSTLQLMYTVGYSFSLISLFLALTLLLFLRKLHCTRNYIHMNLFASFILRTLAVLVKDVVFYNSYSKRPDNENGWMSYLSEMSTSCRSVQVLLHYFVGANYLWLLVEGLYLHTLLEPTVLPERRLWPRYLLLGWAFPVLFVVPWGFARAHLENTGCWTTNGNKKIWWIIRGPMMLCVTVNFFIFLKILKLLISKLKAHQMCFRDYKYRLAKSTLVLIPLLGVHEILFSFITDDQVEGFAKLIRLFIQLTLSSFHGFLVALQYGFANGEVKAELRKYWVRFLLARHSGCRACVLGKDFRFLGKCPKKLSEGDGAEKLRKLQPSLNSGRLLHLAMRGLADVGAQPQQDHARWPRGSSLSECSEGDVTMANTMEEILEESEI
Source text: To achieve this goal, a clonal cell line expressing a mutated human GLP-2R was generated by transfecting HEK 293E cells. The mutated human GLP-2R differs from the wild-type human GLP-2R (SEQ ID NO: 35) at three amino acid positions within the C-terminal intracellular region (SEQ ID NO: 36).
The cAMP expression was quantitated using the cAMP Direct Screen System (Cat. No. CSD 200, Applied Biosystems, Bedford, Mass.).
This assay was based on the cAMP Direct Screen System from Applied Biosystems utilizing a cell line expressing mutated huGLP-2R in HEK 293E cells. Peptide at concentrations ranging from 0.01 nM to 1.0 uM in PBS with 0.5% BSA was added to ˜50,000 cells suspended in 96-well plates. After a 30-minute incubation at 37° C., Lysis Buffer followed by luminescence reagents (Applied Biosystems) was added according to the manufacturers' procedures (Applied Biosystems Luminescence protocol: cAMP-Screen Direct System). Luminescence was quantitated using a TopCount liquid scintillation analyzer (PerkinElmer), and data was processed using Softmax software (Molecular Devices Corporation).

[4] = target: mutated human GLP-2R (human) (UniProt O95838); test: cell-based or functional assay
[5] = target: the molecule itself; test: SEC-SLS, self-association in PBS pH 7.5
mutated human GLP-2R [6] = target: T2, mutated human GLP-2R (human, UniProt O95838 1-553); test: cell-based or functional assay
T2 chain: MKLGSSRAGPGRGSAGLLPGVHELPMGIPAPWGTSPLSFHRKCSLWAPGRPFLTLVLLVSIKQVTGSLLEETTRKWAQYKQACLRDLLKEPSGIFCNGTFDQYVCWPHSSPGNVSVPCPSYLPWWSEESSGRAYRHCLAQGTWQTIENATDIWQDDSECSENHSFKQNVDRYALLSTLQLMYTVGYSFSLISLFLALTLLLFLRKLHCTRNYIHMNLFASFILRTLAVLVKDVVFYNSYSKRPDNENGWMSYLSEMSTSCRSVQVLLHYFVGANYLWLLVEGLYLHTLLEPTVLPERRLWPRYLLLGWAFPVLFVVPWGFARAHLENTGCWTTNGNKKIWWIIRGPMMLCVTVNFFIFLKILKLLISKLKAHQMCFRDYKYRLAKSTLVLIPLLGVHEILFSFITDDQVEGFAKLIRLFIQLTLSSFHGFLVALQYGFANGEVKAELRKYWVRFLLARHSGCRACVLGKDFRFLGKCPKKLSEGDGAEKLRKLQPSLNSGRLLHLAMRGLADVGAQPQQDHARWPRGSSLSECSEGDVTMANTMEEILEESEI

mutated human GLP-2R [7] = target: T2, mutated human GLP-2R; test: cell-based or functional assay
[8] = Table 1, mimetibodies with variable linker length / V2 variant, read-out: EC50
[9] = Table 2, mimetibodies with Pro substitution, read-out: EC50

HGDGSFSDEMNTILDGQAARDFINWLIQTKITD [SEQ ID NO: 55]
SEC-SLS elution / self-association state [1]: mainly monomeric peptide
Random coil (percentage) [2]: 41.4%
Helix (percentage of helical structure) ([2]; listed as GLP-2(A2G, N16G, L17Q)): 17.0%
activity relative to wild type GLP-2 (times less) (mutated human GLP-2R [3]): 2 ×

HGDGSFSDEMNTILDNQAARDFINWLIQTKITD [SEQ ID NO: 54]
SEC-SLS elution / self-association state [1]: mainly monomeric peptide
Random coil (percentage) [2]: 41.8%
Helix (percentage of helical structure) ([2]; listed as GLP-2(A2G, L17Q)): 16.9%
activity relative to wild type GLP-2 (times less) (mutated human GLP-2R [3]): 3 ×

HSDGSFSDEMNTILDNLAARDFINWLIQTKITD [SEQ ID NO: 2, reference compound]
EC50 (mutated human GLP-2R [3]; Example 2, 30 minutes incubation, mimetibodies vs corresponding peptides, read-out: EC50, stimulation of cAMP expression): 0.5 nM

SEQ ID NO: 6: A2G GLP-2 mimetibody linker variant; core HGDGSFSDEMNTILDNLAARDFINWLIQTKITDGGGGSCPPCP (cysteine pairing not given here; also: core of a mimetibody, fused to further protein chains)
EC50 (mutated human GLP-2R [3]; [8]): 40 nM

SEQ ID NO: 7: A2G GLP-2 mimetibody linker variant; core HGDGSFSDEMNTILDNLAARDFINWLIQTKITDGGGGSGGGGSCPPCP (cysteine pairing not given here; also: core of a mimetibody, fused to further protein chains)
EC50 (mutated human GLP-2R [3]; [8]): 22.5 nM

SEQ ID NO: 8: A2G GLP-2 mimetibody linker variant; core HGDGSFSDEMNTILDNLAARDFINWLIQTKITDGGGGSGGGGSGGGGSCPPCP (cysteine pairing not given here; also: core of a mimetibody, fused to further protein chains)
EC50 (mutated human GLP-2R [3]; [8]): 12.7 nM

SEQ ID NO: 9: A2G GLP-2 mimetibody linker variant; core HGDGSFSDEMNTILDNLAARDFINWLIQTKITDGGGGSGGGGSGGGGSGGGGSCPPCP (cysteine pairing not given here; also: core of a mimetibody, fused to further protein chains)
EC50 (mutated human GLP-2R [3]; [8]): 4.6 nM

SEQ ID NO: 11: A2G GLP-2 mimetibody V2 region variant; core […] (HGDGSFSDEMNTILDNLAARDFINWLIQTKITDGSGGGSGALVAVSSESKYGPPCPPCP; chains of the parent or of the whole protein)
EC50 (mutated human GLP-2R [3]; [8]): 3.1 nM

SEQ ID NO: 42: GLP-2 mimetibody Pro substitution variant; core HGDGSFSDEMNTILDNLAARDFINWLIQTKITDGSGGGSGALVPVSSESKYGPPCPPCP (Mimetibody)
EC50 (mutated human GLP-2R [3]; [9]): 3.6 nM

SEQ ID NO: 45: GLP-2 mimetibody Pro substitution variant; core […] (HGDGSFSDEMNTILDNLAARDFINWLIQTKITDGSGGGSGALVAVSSESKPGPPCPPCP)
EC50 (mutated human GLP-2R [3]; [9]): 5.8 nM

SEQ ID NO: 79: GLP-1 peptide included as control in the characterization of the analogs [reference compound]
SEC-SLS elution / self-association state [1]: single peak with molecular weight within the expected monomer size
Helix (percentage of helical structure) [2]: 16.8%
Random coil (percentage) [2]: 41.9%

B1: A2G GLP-2 mimetibody linker length variant SEQ ID NO: 6 (Fc fusion, part only; not given: CH2 and CH3 domains, part only)
chain, part: HGDGSFSDEMNTILDNLAARDFINWLIQTKITDGGGGSCPPCP
modifications: cysteine pairing not given here; also: partial core, CH2-CH3 domains follow in the full mimetibody
EC50 (nM), cAMP expression assay [4]: 40 nM

B2: A2G GLP-2 mimetibody linker length variant SEQ ID NO: 9 (Fc fusion, part only; not given: CH2 and CH3 domains, part only)
chain, part: HGDGSFSDEMNTILDNLAARDFINWLIQTKITDGGGGSGGGGSGGGGSGGGGSCPPCP
modifications: cysteine pairing not given here; also: partial core, CH2-CH3 domains follow in the full mimetibody
EC50 (nM), cAMP expression assay [4]: 4.6 nM

B3: GLP-2(A2G, N16G, L17Q) (peptide)
peptide: HGDGSFSDEMNTILDGQAARDFINWLIQTKITD
notes: Synthetic analog of human GLP-2, >95% purity; also called GLP-2(A2G,N16G, L17Q) peptide
binding result [5]: no binding (tested: 1 mg/ml)
cAMP in Vitro EC50 values (mutated human GLP-2R [6]): 3.5 nM
activity in cAMP expression assay, fold less than wild type GLP-2 (mutated human GLP-2R [7]): 2 fold

B4: GLP-2(A2G, L17Q) (peptide)
peptide: HGDGSFSDEMNTILDNQAARDFINWLIQTKITD
notes: Synthetic analog of human GLP-2, >95% purity; also called GLP-2(A2G, L17Q) peptide
binding result [5]: no binding (tested: 1 mg/ml)
cAMP in Vitro EC50 values (mutated human GLP-2R [6]): 5.2 nM
activity in cAMP expression assay, fold less than wild type GLP-2 (mutated human GLP-2R [7]): 3 fold

HSDGSFSDEMNTILDNLAARDFINWLIQTKITD [A2S GLP-2 peptide]
EC50, cAMP expression (mutated human GLP-2R [7]): 0.5 nM

B5: A2G GLP-2 mimetibody linker length variant SEQ ID NO: 7 (Fc fusion, part only; not given: Fc CH2 and CH3 domains, part only)
chain, part: HGDGSFSDEMNTILDNLAARDFINWLIQTKITDGGGGSGGGGSCPPCP
modifications: cysteine pairing not given here; also: partial core, CH2-CH3 domains follow in the full mimetibody
EC50 (nM), cAMP expression assay [4]: 22.5 nM

B6: SEQ ID NO: 10: A2G GLP-2 mimetibody linker variant; core HGDGSFSDEMNTILDNLAARDFINWLIQTKITDGGGGSGGGGSGGGGSGGGGSGGGGSCPPCP (protein)
chain: HGDGSFSDEMNTILDNLAARDFINWLIQTKITDGGGGSGGGGSGGGGSGGGGSGGGGSCPPCP
modifications: chains of the parent or of the whole protein
EC50 (mutated human GLP-2R [3]; [8]): 2.1 nM

B7: A2S GLP-2 IgG4 mimetibody (Fc fusion)
chain: HSDGSFSDEMNTILDNLAARDFINWLIQTKITDGSGGGSGTLVTVSSESKYGPPCPPCPAPEAAGGPSVFLFPPKPDTLMISRTPEVTCVVVDVSQEDPEVQFNWYVDGVEVHNAKTKPREEQFNSTYRVVSVLTVLHQDWLNGKEYKCKVSNKGLPSSIEKTISKAKGQPREPQVYTLPPSQEEMTKNQVSLTCLVKGFYPSDIAVEWESNGQPENNYKTTPPVLDSDGSFFLYSRLTVDKSRWQEGNVFSCSVMHEALHNHYTQKSLSLSLGK
EC50, cAMP expression (mutated human GLP-2R [7]): 2.2 nM
potency in cAMP expression assay, fold less than the corresponding peptide (mutated human GLP-2R [7]): ~4 fold

B8: A2G GLP-2 mimetibody linker length variant SEQ ID NO: 8 (Fc fusion, part only; not given: CH2 and CH3 domains, part only)
chain, part: HGDGSFSDEMNTILDNLAARDFINWLIQTKITDGGGGSGGGGSGGGGSCPPCP
modifications: cysteine pairing not given here; also: partial core, CH2-CH3 domains follow in the full mimetibody
EC50 (nM), cAMP expression assay [4]: 12.7 nM

B9: A2G GLP-2 mimetibody V2 region variant SEQ ID NO: 11 (Fc fusion, not shown: a dimerising Fc or GST)
chain: HGDGSFSDEMNTILDNLAARDFINWLIQTKITDGSGGGSGALVAVSSESKYGPPCPPCP
EC50 (nM), cAMP expression assay [4]: 3.1 nM

B10: GLP-2 mimetibody Pro substitution variant SEQ ID NO: 45 (Fc fusion, not shown: a dimerising Fc or GST)
chain: HGDGSFSDEMNTILDNLAARDFINWLIQTKITDGSGGGSGALVAVSSESKPGPPCPPCP
EC50 (nM), cAMP expression assay [4]: 5.8 nM

B11: GLP-2 mimetibody Pro substitution variant SEQ ID NO: 42 (Fc fusion, not shown: a dimerising Fc or GST)
chain: HGDGSFSDEMNTILDNLAARDFINWLIQTKITDGSGGGSGALVPVSSESKYGPPCPPCP
EC50 (nM), cAMP expression assay [4]: 3.6 nM

B12: GLP-2 mimetibody Pro substitution variant SEQ ID NO: 44 (Fc fusion, not shown: a dimerising Fc or GST)
chain: HGDGSFSDEMNTILDNLAARDFINWLIQTKITDGSGGGSGALVAVSPESKYGPPCPPCP
EC50 (nM), cAMP expression assay [4]: 7.7 nM

B13: GLP-2 mimetibody Pro substitution variant SEQ ID NO: 43 (Fc fusion, not shown: a dimerising Fc or GST)
chain: HGDGSFSDEMNTILDNLAARDFINWLIQTKITDGSGGGSGALVAVPSESKYGPPCPPCP
EC50 (nM), cAMP expression assay [4]: 4.8 nM
